To fix the notation:
B1: ATE1 (parent)
chain: YGSFHQQYWLDGKIIAVGVIDILP
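Further: lentivirally expressed fusions sorted by FACS into six bins by GFP to DsRed ratio, PSI derived from sequencing read proportions per bin multiplied by bin number.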

The series covers variants of B1. Description: protein stability index of a GFP-peptide fusion (GPS, HEK-293T) (PSI 1-6); higher = more stable. The note with it: c terminus: a fixed tail appended.
Consider YGSFHQQYWLIGKIIAVGVIDILP [D11I], for which the protein stability index was found to be 2.1.

Take YGSFHQQYWLWGKIIAVGVIDILP [D11W]: the protein stability index was 2.72.

For the variant YGSFHQQYWLTGKIIAVGVIDILP [D11T], the protein stability index is 3.15.

Take YGSFHQQYWLPGKIIAVGVIDILP [D11P]: the protein stability index is 2.24.

On to YGSFHQQYWLVGKIIAVGVIDILP [D11V], for which the protein stability index is 2.38.

On to YGSFHQQYWLKGKIIAVGVIDILP [D11K], for which the protein stability index was found to be 3.39.

On to YGSFHQQYWLSGKIIAVGVIDILP [D11S], for which the protein stability index was found to be 2.47.

Consider YGSFHQQYWLAGKIIAVGVIDILP [D11A], for which the protein stability index turned out to be 4.43.

As to YGSFHQQYWLHGKIIAVGVIDILP [D11H], the protein stability index was determined as 2.8.

Consider YGSFHQQYWLDGKICAVGVIDILP [I15C], for which the protein stability index is 1.53.

YGSFHQQYWLDGKIKAVGVIDILP [I15K]: the protein stability index was found to be 1.79.

With YGSFHQQYWLDGKITAVGVIDILP [I15T], the protein stability index worked out at 3.23.

YGSFHQQYWLDGKIHAVGVIDILP [I15H]: the protein stability index was found to be 3.57.

On to YGSFHQQYWLDGKIFAVGVIDILP [I15F], for which the protein stability index was determined as 2.83.

As for YGSFHQQYWLDGKILAVGVIDILP [I15L], the protein stability index is 2.75.

On to YGSFHQQYWLDGKIMAVGVIDILP [I15M], for which the protein stability index came out at 2.51.

For the variant YGSFHQQYWLDGKIVAVGVIDILP [I15V], the protein stability index was 4.05.

As for YGSFHQQYWLDGKIDAVGVIDILP [I15D], the protein stability index was 2.53.

With YGSFHQQYWLDGKIAAVGVIDILP [I15A], the protein stability index came out at 2.57.

Take YGSFHQQYWLDGKIYAVGVIDILP [I15Y]: the protein stability index was found to be 2.45.

In the case of YGSFHQQYWLDGKISAVGVIDILP [I15S], the protein stability index amounted to 2.5.

In the case of YGSFHQQYWLDGKINAVGVIDILP [I15N], the protein stability index was 2.59.

Take YGSFHQQYWLDGKIGAVGVIDILP [I15G]: the protein stability index was 3.26.

With YGSFHQQYWLDGKIEAVGVIDILP [I15E], the protein stability index amounted to 3.12.

For the variant YGSFHQQYWLDGKIRAVGVIDILP [I15R], the protein stability index was 1.91.

With YGSFHQQYWLDGKIIAVGVDDILP [I20D], the protein stability index was found to be 2.41.

As for YGSFHQQYWLDGKIIAVGVSDILP [I20S], the protein stability index was found to be 2.38.

For the variant YGSFHQQYWLDGKIIAVGVLDILP [I20L], the protein stability index was determined as 3.46.

For YGSFHQQYWLDGKIIAVGVPDILP [I20P], the protein stability index came to 2.53.

Regarding YGSFHQQYWLDGKIIAVGVCDILP [I20C], the protein stability index is 1.22.

For YGSFHQQYWLDGKIIAVGVRDILP [I20R], the protein stability index was found to be 2.48.

YGSFHQQYWLDGKIIAVGVFDILP [I20F]: the protein stability index was 4.08.

Turning to YGSFHQQYWLDGKIIAVGVEDILP [I20E], the protein stability index was 1.65.

With YGSFHQQYWLDGKIIAVGVYDILP [I20Y], the protein stability index stood at 1.81.

On to YGSFHQQYWLDGKIIAVGVADILP [I20A], for which the protein stability index was 3.4.

YGSFHQQYWLDGKIIAVGVMDILP [I20M]: the protein stability index is 2.59.

Turning to YGSFHQQYWLDGKIIAVGVWDILP [I20W], the protein stability index stood at 1.38.

For YGSFHQQYWLDGKIIAVGVIYILP [D21Y], the protein stability index turned out to be 1.97.

Consider YGSFHQQYWLDGKIIAVGVIRILP [D21R], for which the protein stability index turned out to be 3.36.

With YGSFHQQYWLDGKIIAVGVICILP [D21C], the protein stability index worked out at 3.23.

YGSFHQQYWLDGKIIAVGVINILP [D21N]: the protein stability index worked out at 2.85.

As to YGSFHQQYWLDGKIIAVGVIFILP [D21F], the protein stability index turned out to be 4.18.

As for YGSFHQQYWLDGKIIAVGVIWILP [D21W], the protein stability index was determined as 4.17.

In the case of YGSFHQQYWLDGKIIAVGVITILP [D21T], the protein stability index came out at 3.

YGSFHQQYWLDGKIIAVGVIQILP [D21Q]: the protein stability index was found to be 3.26.

YGSFHQQYWLDGKIIAVGVISILP [D21S]: the protein stability index was 3.23.

YGSFHQQYWLDGKIIAVGVIVILP [D21V]: the protein stability index worked out at 4.01.

Consider YGSFHQQYWLDGKIIAVGVIEILP [D21E], for which the protein stability index was found to be 3.01.

Take YGSFHQQYWLDGKIIAVGVIMILP [D21M]: the protein stability index worked out at 1.81.

With YGSFHQQYWLDGKIIAVGVIIILP [D21I], the protein stability index amounted to 2.97.

Regarding YGSFHQQYWLDGKIIAVGVIPILP [D21P], the protein stability index worked out at 2.97.

Regarding YGSFHQQYWLDGKIIAVWVIDILP [G18W], the protein stability index stood at 2.81.

On to YGSFHQQYWLDGKIIAVNVIDILP [G18N], for which the protein stability index came out at 2.31.

On to YGSFHQQYWLDGKIIAVFVIDILP [G18F], for which the protein stability index was 2.53.

Take YGSFHQQYWLDGKIIAVLVIDILP [G18L]: the protein stability index was found to be 1.9.

For the variant YGSFHQQYWLDGKIIAVEVIDILP [G18E], the protein stability index is 2.28.

Take YGSFHQQYWLDGKIIAVQVIDILP [G18Q]: the protein stability index came to 3.22.

Consider YGSFHQQYWLDGKIIAVIVIDILP [G18I], for which the protein stability index is 3.47.

YGSFHQQYWLDGKIIAVRVIDILP [G18R]: the protein stability index was 3.77.

For YGSFHQQYWLDGKIIAVSVIDILP [G18S], the protein stability index is 3.06.

Take YGSFHQQYWLDGKIIAVYVIDILP [G18Y]: the protein stability index was 1.96.

With YGSFHQQYWLDGKIIAVTVIDILP [G18T], the protein stability index stood at 4.01.

For YGSFHQQYWLDGKIIAVCVIDILP [G18C], the protein stability index stood at 4.11.

As to YGSFHQQYWLDGKIIAVAVIDILP [G18A], the protein stability index is 3.13.

Regarding YGSFHQQYWLDGKIIAVKVIDILP [G18K], the protein stability index is 3.6.

For the variant YGSFHQQYWLDGKIIAVPVIDILP [G18P], the protein stability index was found to be 2.39.

With YGSFHQQYWLDGKIIAVGSIDILP [V19S], the protein stability index amounted to 2.97.

With YGSFHQQYWLDGKIIAVGYIDILP [V19Y], the protein stability index was determined as 2.91.

Regarding YGSFHQQYWLDGKIIAVGMIDILP [V19M], the protein stability index is 2.91.

Take YGSFHQQYWLDGKIIAVGEIDILP [V19E]: the protein stability index is 1.71.

As for YGSFHQQYWLDGKIIAVGTIDILP [V19T], the protein stability index came to 2.49.

As for YGSFHQQYWLDGKIIAVGIIDILP [V19I], the protein stability index was determined as 2.64.

YGSFHQQYWLDGKIIAVGPIDILP [V19P]: the protein stability index was 3.09.

In the case of YGSFHQQYWLDGKIIAVGKIDILP [V19K], the protein stability index is 1.77.

As to YGSFHQQYWLDGKIIAVGDIDILP [V19D], the protein stability index turned out to be 3.87.

With YGSFHQQYWLDGKIIAVGQIDILP [V19Q], the protein stability index stood at 2.97.

Consider YGSFHQQYWLDGKIIAVGWIDILP [V19W], for which the protein stability index is 2.06.

Take YGSFHQQYWLDGKIIAVGCIDILP [V19C]: the protein stability index turned out to be 2.56.

On to YGSFHQQYWLDGKIIAVGAIDILP [V19A], for which the protein stability index was 2.67.

With YGSFHQQYWLDGKIIAVGRIDILP [V19R], the protein stability index came out at 2.92.

As for YGSFHQQYWLDGKIIAVGFIDILP [V19F], the protein stability index came out at 3.06.

In the case of YGSFHQQYWLDGKIIAVGLIDILP [V19L], the protein stability index turned out to be 2.41.

On to YGSFHQQYWLDRKIIAVGVIDILP [G12R], for which the protein stability index turned out to be 3.98.

On to YGSFHQQYWLDAKIIAVGVIDILP [G12A], for which the protein stability index was found to be 2.54.

For YGSFHQQYWLDCKIIAVGVIDILP [G12C], the protein stability index stood at 2.02.

On to YGSFHQQYWLDQKIIAVGVIDILP [G12Q], for which the protein stability index is 2.45.

Consider YGSFHQQYWLDTKIIAVGVIDILP [G12T], for which the protein stability index came to 3.42.

As for YGSFHQQYWLDKKIIAVGVIDILP [G12K], the protein stability index is 2.14.

For YGSFHQQYWLDNKIIAVGVIDILP [G12N], the protein stability index was 2.45.

Consider YGSFHQQYWLDDKIIAVGVIDILP [G12D], for which the protein stability index is 2.68.

Consider YGSFHQQYWLDSKIIAVGVIDILP [G12S], for which the protein stability index came to 1.91.

Regarding YGSFHQQYWLDIKIIAVGVIDILP [G12I], the protein stability index came to 3.89.

As for YGSFHQQYWLDVKIIAVGVIDILP [G12V], the protein stability index came out at 2.04.

For YGSFHQQYYLDGKIIAVGVIDILP [W9Y], the protein stability index came to 2.97.

These data come from the supplement of paper PMC10567573.
